Data on 66 substances can be found in the array DNA melting data of Ke et al..

As a reminder, the Tm is the temperature at the midpoint of the melting transition.

A short description of this data set: melting temperature; melt of duplexes. The note with it: sodium 0.0675 M; strand 1 µM.
Turning to “CGACGTGCTTTATGTGCTG+CAGCACATAGGGCACGTCG ((((((((..(((((((((+)))))))))..))))))))”, the Tm worked out at 51.1 °C. The result for “CGACGTGCGAGATGTGCTG+CAGCACATATTGCACGTCG ((((((((.(.((((((((+)))))))).).))))))))” reads 54.4 °C; that for “CGACGTGCGATATGTGCTG+CAGCACATGGCGCACGTCG (((((((((..((((((((+))))))))..)))))))))”, 57.4 °C. On to “CGACGTGCAACATGTGCTG+CAGCACATCTAGCACGTCG ((((((((.(.((((((((+)))))))).).))))))))”, for which the Tm stood at 48.2 °C. The result for “CGACGTGCGACATGTGCTG+CAGCACATTGCGCACGTCG (((((((((..((((((((+))))))))..)))))))))” reads 55.3 °C; that for “CGACGTGCGTGATGTGCTG+CAGCACATGTTGCACGTCG ((((((((...((((((((+))))))))...))))))))”, 50 °C. As for “CGACGTGCATAATGTGCTG+CAGCACATTAAGCACGTCG ((((((((.((((((((((+)))))))))).))))))))”, the Tm was found to be 55.1 °C. With “CGACGTGCGATATGTGCTG+CAGCACATTAGGCACGTCG ((((((((...((((((((+))))))))...))))))))” the figure was 50.8 °C; with “CGACGTGCCCGATGTGCTG+CAGCACATCACGCACGTCG ((((((((..(((((((((+)))))))))..))))))))”, 52.2 °C; with “CGACGTGCCTTATGTGCTG+CAGCACATAGGGCACGTCG (((((((((.(((((((((+))))))))).)))))))))”, 57.7 °C. With “CGACGTGCGATATGTGCTG+CAGCACATAAGGCACGTCG ((((((((..(((((((((+)))))))))..))))))))” the figure was 52 °C; with “CGACGTGCAGGATGTGCTG+CAGCACATCCCGCACGTCG ((((((((.((((((((((+)))))))))).))))))))”, 59 °C.

“CGACGTGCTTTATGTGCTG+CAGCACATGAAGCACGTCG ((((((((((.((((((((+)))))))).))))))))))”: the melting temperature (Tm) stood at 57.3 °C.

As for “CGACGTGCTGTATGTGCTG+CAGCACATCCGGCACGTCG ((((((((.(.((((((((+)))))))).).))))))))”, the Tm amounted to 52.8 °C.

For “CGACGTGCCGTATGTGCTG+CAGCACATGCCGCACGTCG ((((((((.(.((((((((+)))))))).).))))))))”, the Tm worked out at 51.6 °C.

For the substance “CGACGTGCGTTATGTGCTG+CAGCACATGACGCACGTCG ((((((((((.((((((((+)))))))).))))))))))”, the Tm stood at 58.9 °C. On to “CGACGTGCATCATGTGCTG+CAGCACATACGGCACGTCG ((((((((...((((((((+))))))))...))))))))”, for which the Tm came out at 46.3 °C. On to “CGACGTGCCCCATGTGCTG+CAGCACATAGAGCACGTCG ((((((((.(.((((((((+)))))))).).))))))))”, for which the Tm amounted to 48.7 °C.

Regarding “CGACGTGCCGCATGTGCTG+CAGCACATCCGGCACGTCG ((((((((((.((((((((+)))))))).))))))))))”, the Tm amounted to 58.2 °C. With “CGACGTGCTGGATGTGCTG+CAGCACATTATGCACGTCG ((((((((...((((((((+))))))))...))))))))” the figure was 52 °C; with “CGACGTGCCTCATGTGCTG+CAGCACATTTGGCACGTCG (((((((((..((((((((+))))))))..)))))))))”, 53.6 °C. The result for “CGACGTGCTATATGTGCTG+CAGCACATCGAGCACGTCG (((((((((..((((((((+))))))))..)))))))))” reads 51.5 °C; that for “CGACGTGCCACATGTGCTG+CAGCACATTAAGCACGTCG ((((((((...((((((((+))))))))...))))))))”, 48.6 °C.

Regarding “CGACGTGCCGCATGTGCTG+CAGCACATGTCGCACGTCG ((((((((..(((((((((+)))))))))..))))))))”, the Tm came to 54.3 °C. For “CGACGTGCATAATGTGCTG+CAGCACATTCAGCACGTCG ((((((((..(((((((((+)))))))))..))))))))”, the Tm was 52 °C. With “CGACGTGCGAAATGTGCTG+CAGCACATTTAGCACGTCG ((((((((.((((((((((+)))))))))).))))))))” the figure was 57.9 °C. The result for “CGACGTGCGATATGTGCTG+CAGCACATATGGCACGTCG ((((((((.((((((((((+)))))))))).))))))))” reads 56.5 °C; that for “CGACGTGCGACATGTGCTG+CAGCACATAATGCACGTCG ((((((((...((((((((+))))))))...))))))))”, 50.8 °C. With “CGACGTGCCACATGTGCTG+CAGCACATTGAGCACGTCG ((((((((...((((((((+))))))))...))))))))” the figure was 52.2 °C; with “CGACGTGCATCATGTGCTG+CAGCACATTGAGCACGTCG ((((((((...((((((((+))))))))...))))))))”, 50.2 °C; with “CGACGTGCTATATGTGCTG+CAGCACATGACGCACGTCG ((((((((...((((((((+))))))))...))))))))”, 47.6 °C. For “CGACGTGCCCAATGTGCTG+CAGCACATCGAGCACGTCG ((((((((.(.((((((((+)))))))).).))))))))”, the Tm was 50.3 °C. The result for “CGACGTGCTCGATGTGCTG+CAGCACATTGTGCACGTCG ((((((((.(.((((((((+)))))))).).))))))))” reads 51.5 °C; that for “CGACGTGCCGTATGTGCTG+CAGCACATTGAGCACGTCG ((((((((...((((((((+))))))))...))))))))”, 49.8 °C; that for “CGACGTGCTGAATGTGCTG+CAGCACATGTCGCACGTCG ((((((((...((((((((+))))))))...))))))))”, 52.1 °C. The result for “CGACGTGCGCGATGTGCTG+CAGCACATGTAGCACGTCG ((((((((...((((((((+))))))))...))))))))” reads 52.6 °C; that for “CGACGTGCGCAATGTGCTG+CAGCACATATTGCACGTCG ((((((((...((((((((+))))))))...))))))))”, 49.2 °C; that for “CGACGTGCGGGATGTGCTG+CAGCACATATTGCACGTCG ((((((((...((((((((+))))))))...))))))))”, 51.4 °C. Take “CGACGTGCCTCATGTGCTG+CAGCACATCATGCACGTCG ((((((((.(.((((((((+)))))))).).))))))))”: the Tm was found to be 47.2 °C. With “CGACGTGCCTCATGTGCTG+CAGCACATGTAGCACGTCG ((((((((..(((((((((+)))))))))..))))))))” the figure was 52.9 °C; with “CGACGTGCCTTATGTGCTG+CAGCACATTTGGCACGTCG (((((((((..((((((((+))))))))..)))))))))”, 54.3 °C.

On to “CGACGTGCAGAATGTGCTG+CAGCACATAAAGCACGTCG ((((((((...((((((((+))))))))...))))))))”, for which the Tm was 50.5 °C. As for “CGACGTGCCTGATGTGCTG+CAGCACATGTCGCACGTCG ((((((((...((((((((+))))))))...))))))))”, the Tm amounted to 48 °C. With “CGACGTGCTCTATGTGCTG+CAGCACATTGTGCACGTCG ((((((((.(.((((((((+)))))))).).))))))))” the figure was 48.3 °C. The result for “CGACGTGCCAAATGTGCTG+CAGCACATTTGGCACGTCG (((((((((((((((((((+)))))))))))))))))))” reads 64.5 °C. On to “CGACGTGCCAAATGTGCTG+CAGCACATCAGGCACGTCG (((((((((..((((((((+))))))))..)))))))))”, for which the Tm was 54.2 °C. The result for “CGACGTGCCAAATGTGCTG+CAGCACATAAGGCACGTCG (((((((((..((((((((+))))))))..)))))))))” reads 54.4 °C; that for “CGACGTGCGTAATGTGCTG+CAGCACATATTGCACGTCG ((((((((...((((((((+))))))))...))))))))”, 50.5 °C; that for “CGACGTGCGCCATGTGCTG+CAGCACATAGGGCACGTCG ((((((((.(.((((((((+)))))))).).))))))))”, 52.8 °C. The result for “CGACGTGCAGTATGTGCTG+CAGCACATTGCGCACGTCG ((((((((...((((((((+))))))))...))))))))” reads 49.3 °C. The result for “CGACGTGCATGATGTGCTG+CAGCACATGCAGCACGTCG ((((((((...((((((((+))))))))...))))))))” reads 50.4 °C; that for “CGACGTGCATAATGTGCTG+CAGCACATTCGGCACGTCG ((((((((..(((((((((+)))))))))..))))))))”, 51.8 °C. On to “CGACGTGCGTGATGTGCTG+CAGCACATGTCGCACGTCG (((((((((..((((((((+))))))))..)))))))))”, for which the Tm worked out at 55.2 °C. On to “CGACGTGCAAAATGTGCTG+CAGCACATACAGCACGTCG ((((((((...((((((((+))))))))...))))))))”, for which the Tm was 49.7 °C.

For “CGACGTGCACGATGTGCTG+CAGCACATCTGGCACGTCG ((((((((..(((((((((+)))))))))..))))))))”, the Tm was found to be 53.6 °C.

For the substance “CGACGTGCGATATGTGCTG+CAGCACATCGAGCACGTCG ((((((((...((((((((+))))))))...))))))))”, the Tm amounted to 53.6 °C.

On to “CGACGTGCACCATGTGCTG+CAGCACATCCGGCACGTCG ((((((((...((((((((+))))))))...))))))))”, for which the Tm was 42.7 °C. The result for “CGACGTGCCCCATGTGCTG+CAGCACATCGAGCACGTCG ((((((((.(.((((((((+)))))))).).))))))))” reads 48.7 °C. The result for “CGACGTGCTTAATGTGCTG+CAGCACATACGGCACGTCG ((((((((...((((((((+))))))))...))))))))” reads 48.3 °C; that for “CGACGTGCCGGATGTGCTG+CAGCACATGCTGCACGTCG ((((((((.(.((((((((+)))))))).).))))))))”, 51.3 °C.

“CGACGTGCTGGATGTGCTG+CAGCACATAGCGCACGTCG ((((((((...((((((((+))))))))...))))))))”: the Tm was determined as 49.3 °C. On to “CGACGTGCGGAATGTGCTG+CAGCACATTGCGCACGTCG (((((((((.(((((((((+))))))))).)))))))))”, for which the Tm amounted to 61.2 °C. With “CGACGTGCCCAATGTGCTG+CAGCACATCGGGCACGTCG ((((((((((.((((((((+)))))))).))))))))))” the figure was 58.9 °C; with “CGACGTGCTGCATGTGCTG+CAGCACATTGAGCACGTCG (((((((((..((((((((+))))))))..)))))))))”, 52.2 °C. As to “CGACGTGCTCCATGTGCTG+CAGCACATCTCGCACGTCG ((((((((...((((((((+))))))))...))))))))”, the Tm came out at 46.2 °C. Consider “CGACGTGCCCAATGTGCTG+CAGCACATTCGGCACGTCG (((((((((.(((((((((+))))))))).)))))))))”, for which the midpoint of thermal melting (Tm) stood at 55.8 °C.
